± gives the standard deviation of the averaged measurements.
Assay: total protein half-life in vivo (active degradation + dilution); higher = more stable protein
[1] = E. coli NCM3722 delta-lon, growth: N-lim chemostat, doubling time 6 h
[2] = E. coli NCM3722 delta-smpB, growth: N-lim chemostat, doubling time 6 h
[3] = wild type E. coli NCM3722, growth: C-lim chemostat, doubling time 6 h
[4] = wild type E. coli NCM3722, growth: C-lim chemostat, doubling time 12 h
[5] = wild type E. coli NCM3722, growth: N-lim chemostat, doubling time 6 h
[6] = wild type E. coli NCM3722, growth: N-lim chemostat, doubling time 12 h
[7] = wild type E. coli NCM3722, growth: P-lim chemostat, doubling time 6 h
[8] = wild type E. coli NCM3722, growth: P-lim chemostat, doubling time 12 h
[9] = E. coli NCM3722 delta-clpP delta-lon delta-hslV, growth: N-lim chemostat, doubling time 6 h
[10] = E. coli NCM3722 delta-hslV, growth: N-lim chemostat, doubling time 6 h
[11] = wild type E. coli NCM3722, growth: C-lim chemostat, doubling time 3 h
[12] = E. coli NCM3722 delta-clpP, growth: N-lim chemostat, doubling time 6 h

Sequence	total protein half-life in vivo [1] [h]	total protein half-life in vivo [2] [h]	total protein half-life in vivo [3] [h]	total protein half-life in vivo [4] [h]	total protein half-life in vivo [5] [h]	total protein half-life in vivo [6] [h]	total protein half-life in vivo [7] [h]	total protein half-life in vivo [8] [h]	total protein half-life in vivo [9] [h]	total protein half-life in vivo [10] [h]	total protein half-life in vivo [11] [h]	total protein half-life in vivo [12] [h]
MIEWIIRRSVANRFLVLMGALFLSIWGTWTIINTPVDALPDLSDVQVIIKTSYPGQAPQIVENQVTYPLTTTMLSVPGAKTVRGFSQFGDSYVYVIFEDGTDPYWARSRVLEYLNQVQGKLPAGVSAELGPDATGVGWIYEYALVDRSGKHDLADLRSLQDWFLKYELKTIPDVAEVASVGGVVKEYQVVIDPQRLAQYGISLAEVKSALDASNQEAGGSSIELAEAEYMVRASGYLQTLDDFNHIVLKASENGVPVYLRDVAKVQIGPEMRRGIAELNGEGEVAGGVVILRSGKNAREVIAAVKDKLETLKSSLPEGVEIVTTYDRSQLIDRAIDNLSGKLLEEFIVVAVVCALFLWHVRSALVAIISLPLGLCIAFIVMHFQGLNANIMSLGGIAIAVGAMVDAAIVMIENAHKRLEEWQHQHPDATLDNKTRWQVITDASVEVGPALFISLLIITLSFIPIFTLEGQEGRLFGPLAFTKTYAMAGAALLAIVVIPILMGYWIRGKIPPESSNPLNRFLIRVYHPLLLKVLHWPKTTLLVAALSVLTVLWPLNKVGGEFLPQINEGDLLYMPSTLPGISAAEAASMLQKTDKLIMSVPEVARVFGKTGKAETATDSAPLEMVETTIQLKPQEQWRPGMTMDKIIEELDNTVRLPGLANLWVPPIRNRIDMLSTGIKSPIGIKVSGTVLADIDAMAEQIEEVARTVPGVASALAERLEGGRYINVEINREKAARYGMTVADVQLFVTSAVGGAMVGETVEGIARYPINLRYPQSWRDSPQALRQLPILTPMKQQITLADVADIKVSTGPSMLKTENARPTSWIYIDARDRDMVSVVHDLQKAIAEKVQLKPGTSVAFSGQFELLERANHKLKLMVPMTLMIIFVLLYLAFRRVGEALLIISSVPFALVGGIWLLWWMGFHLSVATGTGFIALAGVAAEFGVVMLMYLRHAIEAVPSLNNPQTFSEQKLDEALYHGAVLRVRPKAMTVAVIIAGLLPILWGTGAGSEVMSRIAAPMIGGMITAPLLSLFIIPAAYKLMWLHRHRVRK	> 8	6.09	7.07	> 16	5.97 ± 0.71	12.6 ± 3.8	6.31 ± 0.89	12.7 ± 0.39	–	–	–	–
MIEWQDLHHSELSVSQLYALLQLRCAVFVVEQNCPYQDIDGDDLTGDNRHILGWKNDELVAYARILKSDDDLEPVVIGRVIVSEALRGEKVGQQLMSKTLETCTHHWPDKPVYLGAQAHLQNFYQSFGFIPVTEVYEEDGIPHIGMAREVIQA [P0AEH3]	3.58 ± 0.13	2.23 ± 0.14	4.3 ± 0.27	7.04 ± 0.82	2.68 ± 0.086	3.85 ± 0.064	4.54 ± 0.38	9.98 ± 1.5	4.51 ± 0.43	3.93 ± 1.4	2.35 ± 0.064	–
MIFLMTKDSFLLQGFWQLKDNHEMIKINSLSEIKKVGNKPFKVIIDTYHNHILDEEAIKFLEKLDAERIIVLAPYHISKLKAKAPIYFVSRKESIKNLLEITYGKHLPHKNSQLCFSHNQFKIMQLILKNKNESNITSTLNISQQTLKIQKFNIMYKLKLRRMSDIVTLGITSYF	1.03 ± 0.022	3.52 ± 0.093	–	–	2.29 ± 0.07	3.82 ± 0.15	2.34 ± 0.054	6.16 ± 0.74	4.62 ± 0.1	1.91 ± 0.33	–	3.05 ± 0.11
MIFTLRPYQQEAVDATLNHFRRHKTPAVIVLPTGAGKSLVIAELARLARGRVLVLAHVKELVAQNHAKYQALGLEADIFAAGLKRKESHGKVVFGSVQSVARNLDAFQGEFSLLIVDECHRIGDDEESQYQQILTHLTKVNPHLRLLGLTATPFRLGKGWIYQFHYHGMVRGDEKALFRDCIYELPLRYMIKHGYLTPPERLDMPVVQYDFSRLQAQSNGLFSEADLNRELKKQQRITPHIISQIMEFAATRKGVMIFAATVEHAKEIVGLLPAEDAALITGDTPGAERDVLIENFKAQRFRYLVNVAVLTTGFDAPHVDLIAILRPTESVSLYQQIVGRGLRLAPGKTDCLILDYAGNPHDLYAPEVGTPKGKSDNVPVQVFCPACGFANTFWGKTTADGTLIEHFGRRCQGWFEDDDGHREQCDFRFRFKNCPQCNAENDIAARRCRECDTVLVDPDDMLKAALRLKDALVLRCSGMSLQHGHDEKGEWLKITYYDEDGADVSERFRLQTPAQRTAFEQLFIRPHTRTPGIPLRWITAADILAQQALLRHPDFVVARMKGQYWQVREKVFDYEGRFRLAHELRG	3.9 ± 0.26	3.3 ± 0.36	4.38 ± 0.35	7.46 ± 0.87	3.38 ± 0.3	5.32 ± 0.49	5.37 ± 0.26	10.1 ± 0.45	5.4 ± 0.095	3.55 ± 0.12	2.79 ± 0.44	4.39 ± 0.49
MIGRISRFMTRFVSRWLPDPLIFAMLLTLLTFVIALWLTPQTPISMVKMWGDGFWNLLAFGMQMALIIVTGHALASSAPVKSLLRTAASAAKTPVQGVMLVTFFGSVACVINWGFGLVVGAMFAREVARRVPGSDYPLLIACAYIGFLTWGGGFSGSMPLLAATPGNPVEHIAGLIPVGDTLFSGFNIFITVALIVVMPFITRMMMPKPSDVVSIDPKLLMEEADFQKQLPKDAPPSERLEESRILTLIIGALGIAYLAMYFSEHGFNITINTVNLMFMIAGLLLHKTPMAYMRAISAAARSTAGILVQFPFYAGIQLMMEHSGLGGLITEFFINVANKDTFPVMTFFSSALINFAVPSGGGHWVIQGPFVIPAAQALGADLGKSVMAIAYGEQWMNMAQPFWALPALAIAGLGVRDIMGYCITALLFSGVIFVIGLTLF	5.21	5.88	–	–	5.5	15.3	–	–	–	–	–	5.89
MIIIRYLVRETLKSQLAILFILLLIFFCQKLVRILGAAVDGDIPANLVLSLLGLGVPEMAQLILPLSLFLGLLMTLGKLYTESEITVMHACGLSKAVLVKAAMILAVFTAIVAAVNVMWAGPWSSRHQDEVLAEAKANPGMAALAQGQFQQATNGSSVLFIESVDGSDFKDVFLAQIRPKGNARPSVVVADSGHLTQLRDGSQVVTLNQGTRFEGTALLRDFRITDFQDYQAIIGHQAVALDPNDTDQMDMRTLWNTDTDRARAELNWRITLVFTVFMMALMVVPLSVVNPRQGRVLSMLPAMLLYLLFFLIQTSLKSNGGKGKLDPTLWMWTVNLIYLALAIVLNLWDTVPVRRLRASFSRKGAV [P0AF98]	6.05 ± 0.35	6.02 ± 0.49	5.94 ± 0.35	10.4	5.9587 ± 0.0048	12.6 ± 0.32	6.85 ± 0.98	12.6 ± 0.65	6.78 ± 0.092	–	3.17 ± 0.17	–
MIKFSATLLATLIAASVNAATVDLRIMETTDLHSNMMDFDYYKDTATEKFGLVRTASLINDARNEVKNSVLVDNGDLIQGSPLADYMSAKGLKAGDIHPVYKALNTLDYTVGTLGNHEFNYGLDYLKNALAGAKFPYVNANVIDARTKQPMFTPYLIKDTEVVDKDGKKQTLKIGYIGVVPPQIMGWDKANLSGKVTVNDITETVRKYVPEMREKGADVVVVLAHSGLSADPYKVMAENSVYYLSEIPGVNAIMFGHAHAVFPGKDFADIEGADIAKGTLNGVPAVMPGMWGDHLGVVDLQLSNDSGKWQVTQAKAEARPIYDIANKKSLAAEDSKLVETLKADHDATRQFVSKPIGKSADNMYSYLALVQDDPTVQVVNNAQKAYVEHYIQGDPDLAKLPVLSAAAPFKVGGRKNDPASYVEVEKGQLTFRNAADLYLYPNTLIVVKASGKEVKEWLECSAGQFNQIDPNSTKPQSLINWDGFRTYNFDVIDGVNYQIDVTQPARYDGECQMINANAERIKNLTFNGKPIDPNAMFLVATNNYRAYGGKFAGTGDSHIAFASPDENRSVLAAWIADESKRAGEIHPAADNNWRLAPIAGDKKLDIRFETSPSDKAAAFIKEKGQYPMNKVATDDIGFAIYQVDLSK	7.14 ± 0.34	5.91 ± 0.18	5.93 ± 0.14	12.9 ± 2.1	6.327 ± 0.037	12.2 ± 1.1	5.23 ± 0.31	11.212 ± 0.0065	6.84 ± 0.98	6.23 ± 0.19	3.34 ± 0.07	6.56 ± 1.5
MIKKASLLTACSVTAFSAWAQDTSPDTLVVTANRFEQPRSTVLAPTTVVTRQDIDRWQSTSVNDVLRRLPGVDITQNGGSGQLSSIFIRGTNASHVLVLIDGVRLNLAGVSGSADLSQFPIALVQRVEYIRGPRSAVYGSDAIGGVVNIITTRDEPGTEISAGWGSNSYQNYDVSTQQQLGDKTRVTLLGDYAHTHGYDVVAYGNTGTQAQTDNDGFLSKTLYGALEHNFTDAWSGFVRGYGYDNRTNYDAYYSPGSPLLDTRKLYSQSWDAGLRYNGELIKSQLITSYSHSKDYNYDPHYGRYDSSATLDEMKQYTVQWANNVIVGHGSIGAGVDWQKQTTTPGTGYVEDGYDQRNTGIYLTGLQQVGDFTFEGAARSDDNSQFGRHGTWQTSAGWEFIEGYRFIASYGTSYKAPNLGQLYGFYGNPNLDPEKSKQWEGAFEGLTAGVNWRISGYRNDVSDLIDYDDHTLKYYNEGKARIKGVEATANFDTGPLTHTVSYDYVDARNAITDTPLLRRAKQQVKYQLDWQLYDFDWGITYQYLGTRYDKDYSSYPYQTVKMGGVSLWDLAVAYPVTSHLTVRGKIANLFDKDYETVYGYQTAGREYTLSGSYTF	6.49 ± 0.47	6.07 ± 0.27	6.12 ± 0.2	12.3 ± 0.2	6.29 ± 0.28	13.5 ± 1.7	6.23 ± 0.18	12.8 ± 0.14	6.44 ± 0.73	6.84 ± 0.059	3.26 ± 0.15	6.76 ± 0.089
MIKKIFALPVIEQISPVLSRRKLDELDLIVVDHPQVKASFALQGAHLLSWKPAGEEEVLWLSNNTPFKNGVAIRGGVPVCWPWFGPAAQQGLPAHGFARNLPWTLKSHHEDADGVALTFELTQSEETKKFWPHDFTLLAHFRVGKTCEIDLESHGEFETTSALHTYFNVGDIAKVSVSGLGDRFIDKVNDAKENVLTDGIQTFPDRTDRVYLNPQDCSVINDEALNRIIAVGHQHHLNVVGWNPGPALSISMGDMPDDGYKTFVCVETAYASETQKVTKEKPAHLAQSIRVAKR	5.11 ± 0.53	5.67 ± 0.29	–	13 ± 1.6	5.42 ± 0.3	13.7 ± 2.5	5.72 ± 0.72	12.9 ± 1.8	5.78 ± 0.46	6.17 ± 1.1	–	5.24 ± 0.6
MIKPTFLRRVAIAALLSGSCFSAAAAPPAPPVSYGVEEDVFHPVRAKQGMVASVDATATQVGVDILKEGGNAVDAAVAVGYALAVTHPQAGNLGGGGFMLIRSKNGNTTAIDFREMAPAKATRDMFLDDQGNPDSKKSLTSHLASGTPGTVAGFSLALDKYGTMPLNKVVQPAFKLARDGFIVNDALADDLKTYGSEVLPNHENSKAIFWKEGEPLKKGDTLVQANLAKSLEMIAENGPDEFYKGTIAEQIAQEMQKNGGLITKEDLAAYKAVERTPISGDYRGYQVYSMPPPSSGGIHIVQILNILENFDMKKYGFGSADAMQIMAEAEKYAYADRSEYLGDPDFVKVPWQALTNKAYAKSIADQIDINKAKPSSEIRPGKLAPYESNQTTHYSVVDKDGNAVAVTYTLNTTFGTGIVAGESGILLNNQMDDFSAKPGVPNVYGLVGGDANAVGPNKRPLSSMSPTIVVKDGKTWLVTGSPGGSRIITTVLQMVVNSIDYGLNVAEATNAPRFHHQWLPDELRVEKGFSPDTLKLLEAKGQKVALKEAMGSTQSIMVGPDGELYGASDPRSVDDLTAGY	–	6.24 ± 0.43	5.9124 ± 0.0049	12.2 ± 2.3	6.219 ± 0.013	12.42 ± 0.05	5.73 ± 0.52	13.2 ± 1.1	6.01 ± 0.77	5.99 ± 0.16	3.1 ± 0.34	–
MIKRVLVVSMVGLSLVGCVNNDTLSGDVYTASEAKQVQNVSYGTIVNVRPVQIQGGDDSNVIGAIGGAVLGGFLGNTVGGGTGRSLATAAGAVAGGVAGQGVQSAMNKTQGVELEIRKDDGNTIMVVQKQGNTRFSPGQRVVLASNGSQVTVSPR [P0A905]	6.23 ± 0.85	6.1 ± 0.32	5.41 ± 0.79	9.39 ± 0.33	5.49 ± 0.094	11.5 ± 0.94	5.87 ± 0.41	11.5 ± 0.73	5.26 ± 0.26	6.11 ± 0.62	2.899 ± 0.023	5.83 ± 0.096
